Laboratory results published in patent EP4785956A2 (CHUGAI SEIYAKU KABUSHIKI KAISHA, dated 2026).

B1: eculizumab-F760G4 (antibody, human IgG4 S228P, kappa)
heavy: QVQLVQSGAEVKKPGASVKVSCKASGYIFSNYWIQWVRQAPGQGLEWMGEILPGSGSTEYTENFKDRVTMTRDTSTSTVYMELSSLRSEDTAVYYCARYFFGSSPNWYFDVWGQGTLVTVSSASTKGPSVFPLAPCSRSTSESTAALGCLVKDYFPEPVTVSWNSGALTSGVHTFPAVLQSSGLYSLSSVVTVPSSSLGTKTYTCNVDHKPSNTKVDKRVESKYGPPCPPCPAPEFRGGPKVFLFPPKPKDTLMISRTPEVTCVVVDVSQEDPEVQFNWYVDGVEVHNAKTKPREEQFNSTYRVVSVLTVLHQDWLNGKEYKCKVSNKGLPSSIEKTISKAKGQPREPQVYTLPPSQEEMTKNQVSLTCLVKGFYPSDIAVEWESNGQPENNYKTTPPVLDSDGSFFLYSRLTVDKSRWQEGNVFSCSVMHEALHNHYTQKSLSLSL
light: DIQMTQSPSSLSASVGDRVTITCGASENIYGALNWYQQKPGKAPKLLIYGATNLADGVPSRFSGSGSGTDFTLTISSLQPEDFATYYCQNVLNTPLTFGQGTKVEIKRTVAAPSVFIFPPSDEQLKSGTASVVCLLNNFYPREAKVQWKVDNALQSGNSQESVTEQDSKDSTYSLSSTLTLSKADYEKHKVYACEVTHQGLSSPVTKSFNRGEC
B2: 305LO20-SG115 (antibody)
heavy: QVQLVESGGGLVQPGGSLRLSCAASGFTVHSSYYMAWVRQAPGKGLEWVGAIFTGSGAEYKAEWAKGRVTISKDTSKNQVVLTMTNMDPVDTATYYCASDAGYDYPTHAMHYWGQGTLVTVSSASTKGPSVFPLAPSSKSTSGGTAALGCLVKDYFPEPVTVSWNSGALTSGVHTFPAVLQSSGLYSLSSVVTVPSSSLGTQTYICNVNHKPSNTKVDKKVEPKSCDKTHTCPPCPAPELRRGPKVFLFPPKPKDTLMISRTPEVTCVVVDVSHEDPEVKFNWYVDGVEVHNAKTKPREEQYNSTYRVVSVLTVLHQDWLNGKEYKCKVSNKGLPSSIEKTISKAKGQPREPQVYTLPPSREEMTKNQVSLTCLVKGFYPSDIAVEWESNGQPENNYKTTPPVLDSDGSFFLYSKLTVDKSRWQQGNVFSCSVLHEALHAHYTRKELSLSP
light: DIQMTQSPSSLSASVGDRVTITCRASQGISSSLAWYQQKPGQAPRLLIYGASETESGVPSRFSGSGSGTDFTLTISSLQPEDFATYYCQNTKVGSSYGNTFGGGTKVEIKRTVAAPSVFIFPPSDEQLKSGTASVVCLLNNFYPREAKVQWKVDNALQSGNSQESVTEQDSKDSTYSLSSTLTLSKADYEKHKVYACEVTHQGLSSPVTKSFNRGEC
B3: 305LO20-SG422 (antibody)
heavy: QVQLVESGGGLVQPGGSLRLSCAASGFTVHSSYYMAWVRQAPGKGLEWVGAIFTGSGAEYKAEWAKGRVTISKDTSKNQVVLTMTNMDPVDTATYYCASDAGYDYPTHAMHYWGQGTLVTVSSASTKGPSVFPLAPCSRSTSGGTAALGCLVKDYFPEPVTVSWNSGALTSGVHTFPAVLQSSGLYSLSSVVTVPSSSLGTKTYTCNVDHKPSNTKVDKRVESKYGPPCPPCPAPEFRRGPKVFLFPPKPKDTLMISRTPEVTCVVVDVSHEDPEVKFNWYVDGVEVHNAKTKPREEQYNSTYRVVSVLTVLHQDWLNGKEYKCKVSNKGLPSSIEKTISKAKGQPREPQVYTLPPSREEMTKNQVSLTCLVKGFYPSDIAVEWESNGQPENNYKTTPPVLDSDGSFFLYSKLTVDKSRWQQGNVFSCSVLHEALHAHYTRKELSLSP
light: B2 light
B4: 305LO23-SG115 (antibody, V domains shown)
VH: QVQLVESGGGLVQPGGSLRLSCAASGFTVHSSYYMAWVRQAPGKGLEWVSGIFTGSGATYKAEWAKGRVTISKDTSKNQVVLTMTNMDPVDTATYYCASDAGYDYPTHAMHYWGQGTLVTVSS
VL: DIQMTQSPSSLSASVGDRVTITCRASQGISSSLAWYQQKPGQAPRLLIYGASTTQSGVPSRFSGSGSGTDFTLTISSLQPEDFATYYCQNTKVGSSYGNTFGGGTKVEIKR

Experiments:
[1] = target: T1, recombinant MG1-MG2 domain of human C5 beta-chain (human, UniProt P01031 20-225); assay: SPR (BIACORE T200), antibody captured, MG1-MG2 domain injected, pH7.4, 37 degrees C
T1 construct: also called MG1-MG2 domain (1-225) of human C5

recombinant human C5 = target: T2, recombinant human C5 (human, UniProt P01031 20-1676); assay: SPR (BIACORE T200), ratio of kd of condition (2) and (1)
T2 construct: The same entry is used here for C5 in normal human serum in the functional rows; also called hC5; rhC5

Binder	binding result [1]	pH dependency (ratio of dissociation rate at pH5.8 to that at pH7.4) (recombinant human C5)
B1	no binding (tested: 20 nM and 40 nM)	–
B2	–	17.5
B3	–	17.3
B4	–	20.2
